In paper PMC11116813 (2024):

Key:
Assay in all cases: ITC
[1] = biological target: T1, full-length human HP1α WT (hHP1α), recombinant (human, UniProt P45973 1-191)
[2] = biological target: T1, full-length human HP1α WT (hHP1α), …; remark: listed apart in the source
[3] = biological target: human HP1α chromoshadow domain (CSD), recombinant (human)
[4] = biological target: human HP1α chromoshadow domain (CSD), recombinant (human); remark: listed apart in the source

human HP1α chromoshadow domain (CSD), recombinant (human), sequence (chain, as listed by the source): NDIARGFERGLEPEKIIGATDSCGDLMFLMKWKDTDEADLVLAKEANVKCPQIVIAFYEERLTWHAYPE
T1 sequence (P45973 whole entry): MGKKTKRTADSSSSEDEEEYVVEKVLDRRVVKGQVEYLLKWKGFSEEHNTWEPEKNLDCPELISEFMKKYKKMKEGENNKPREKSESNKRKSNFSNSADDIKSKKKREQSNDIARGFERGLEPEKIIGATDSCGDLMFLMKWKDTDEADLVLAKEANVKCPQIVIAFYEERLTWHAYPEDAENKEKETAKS

Binder	Kd [1] [nM]	Ka [2] [M⁻¹]	Kd [3] [nM]	Ka [4] [M⁻¹]
human INCENP (121-210) -6His, GST removed (Fig. 2D) (domain or fragment) LRRVTRAAAAAAAATMALAAPSSPTPESPTMLTKKPEDNHTQCQLVPVVEIGISERQNAEQHVTQLMSTEPLPRTLSPTPASATAPTSQG	14	7.25e+07	–	–
YHTQCQLVPVVEIGISERQNAEQHVTQLMSTEPL (domain or fragment) [human INCENP (160-192), untagged version (Tyr-added), GST removed]	–	–	39	2.57e+07
human INCENP (121-270) WT -6His, GST removed (domain or fragment) LRRVTRAAAAAAAATMALAAPSSPTPESPTMLTKKPEDNHTQCQLVPVVEIGISERQNAEQHVTQLMSTEPLPRTLSPTPASATAPTSQGIPTSDEESTPKKSKARILESITVSSLMATPQDPKGQGVGTGRSASKLRIAQVSPGPRDSP	–	2.35e+07	–	–
human INCENP (160-210) -6His, GST removed (domain or fragment) HTQCQLVPVVEIGISERQNAEQHVTQLMSTEPLPRTLSPTPASATAPTSQG	25	3.9e+07	39	2.56e+07

Next, values leading:

Kd [1] [nM]	Ka [2] [M⁻¹]	Kd [3] [nM]	Ka [4] [M⁻¹]	Binder
55	1.82e+07	–	–	human INCENP fragment (121-210) WT used in Fig. 6A (domain or fragment) YLRRVTRAAAAAAAATMALAAPSSPTPESPTMLTKKPEDNHTQCQLVPVVEIGISERQNAEQHVTQLMSTEPLPRTLSPTPASATAPTSQG
–	242000	–	–	human Sgo1 fragment (405-494), Tyr-added, GST removed (domain or fragment) YAKRALKYTDEKETEGSKPTKTPTTTPPETQQSPHLSLKDITNVSLYPVVKIRRLSLSPKKNKASPAVALPKRRCTASVNYKEPTLASKLR
